The source of these data is PMC10065799, “High-throughput profiling of sequence recognition by tyrosine kinases and SH2 domains using bacterial peptide display” (eLife, 2023).

Square brackets hold non-standard residues; d marks the D form. pY = N[C@@H](Cc1ccc(OP(=O)(O)O)cc1)C(=O)O

For this experiment, the target named is human c-Src SH2 domain (residues 143-250) (human, UniProt P12931-1 143-250, biotin on the Avi tag (co-expression with the biotin ligase BirA)). Briefly: fluorescence polarisation; competition: unlabeled phosphopeptide serially diluted against 30 nM fluorescent peptide and 240 nM (1.5 x KD) c-Src SH2; same buffer; 25 °C; cubic binding equation. To be noted: both partners purified. For orientation: Polarisation of emitted light reports the rotation of a fluorescent probe.

B1: CLIP2_Y972 phosphopeptide Ac-QSDQRR(pY)SLIDRG-NH2 (peptide)
peptide: Ac-QSDQRR[pY]SLIDRG-NH2
SMILES: CC[C@H](C)[C@H](NC(=O)[C@H](CC(C)C)NC(=O)[C@H](CO)NC(=O)[C@H](Cc1ccc(OP(=O)(O)O)cc1)NC(=O)[C@H](CCCNC(=N)N)NC(=O)[C@H](CCCNC(=N)N)NC(=O)[C@H](CCC(N)=O)NC(=O)[C@H](CC(=O)O)NC(=O)[C@H](CO)NC(=O)[C@H](CCC(N)=O)NC(C)=O)C(=O)N[C@@H](CC(=O)O)C(=O)N[C@@H](CCCNC(=N)N)C(=O)NCC(N)=O
notes: source: synthetic peptide (synthesized in-house, RP-HPLC purified)
As to B1, the binding result is recorded as “binds”.

B2: CLIP2_Y972_R977P phosphopeptide Ac-QSDQRR(pY)SLIDPG-NH2 (peptide)
peptide: Ac-QSDQRR[pY]SLIDPG-NH2
SMILES: CC[C@H](C)[C@H](NC(=O)[C@H](CC(C)C)NC(=O)[C@H](CO)NC(=O)[C@H](Cc1ccc(OP(=O)(O)O)cc1)NC(=O)[C@H](CCCNC(=N)N)NC(=O)[C@H](CCCNC(=N)N)NC(=O)[C@H](CCC(N)=O)NC(=O)[C@H](CC(=O)O)NC(=O)[C@H](CO)NC(=O)[C@H](CCC(N)=O)NC(C)=O)C(=O)N[C@@H](CC(=O)O)C(=O)N1CCC[C@H]1C(=O)NCC(N)=O
notes: as for B1
Regarding B2, the binding result is on record as “binds”.
